Legend:
GST-SP1 [1] = biological target: GST-SP1 (UniProt P08047); test: ELONA; details: 5-methylcytosine at CpG (underlining lost in text; CpG C at 5, 10, 16); SPR VEGF165: DNA folded in 10 mM Tris-HCl, 100 mM KCl, pH 7.4, 25 °C; ELONA: DNA folded in TK (100 mM KCl) or 100 mM LiCl buffer, binding in TBS (10 mM …)
GST-SP1 [2] = biological target: GST-SP1 (UniProt P08047); test: SPR; details: SPR VEGF165: DNA folded in 10 mM Tris-HCl, 100 mM KCl, pH 7.4, 25 °C, ELONA: DNA folded in TK (100 mM KCl) or 100 mM LiCl buffer, binding in TBS (10 mM …)
VEGF165 = VEGF165 (UniProt P15692-4 27-191); test: SPR; 100 mM K+; SPR VEGF165: DNA folded in 10 mM Tris-HCl, 100 mM KCl, pH 7.4, 25 °C; ELONA: DNA folded in TK (100 mM KCl) or 100 mM LiCl buffer, binding in TBS (10 mM Tris-HCl, 150 mM NaCl, 5 mM KCl), 90 µM ZnCl2, pH 7.3, RT; SPR GST-SP1: captured by anti-GST on CM5, single-cycle kinetics 10-160 nM DNA, running buffer not stated; details: chain copies: 2, label: 5' biotin for ELONA
Sequence of VEGF165 (P15692 other isoform, or with tags, fused parts or gaps): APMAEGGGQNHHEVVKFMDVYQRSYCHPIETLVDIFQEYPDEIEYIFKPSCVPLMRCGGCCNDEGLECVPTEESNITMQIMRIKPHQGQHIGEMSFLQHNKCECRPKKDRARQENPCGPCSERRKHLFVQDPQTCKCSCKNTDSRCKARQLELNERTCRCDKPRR

Sequence of GST-SP1 (P08047 whole entry): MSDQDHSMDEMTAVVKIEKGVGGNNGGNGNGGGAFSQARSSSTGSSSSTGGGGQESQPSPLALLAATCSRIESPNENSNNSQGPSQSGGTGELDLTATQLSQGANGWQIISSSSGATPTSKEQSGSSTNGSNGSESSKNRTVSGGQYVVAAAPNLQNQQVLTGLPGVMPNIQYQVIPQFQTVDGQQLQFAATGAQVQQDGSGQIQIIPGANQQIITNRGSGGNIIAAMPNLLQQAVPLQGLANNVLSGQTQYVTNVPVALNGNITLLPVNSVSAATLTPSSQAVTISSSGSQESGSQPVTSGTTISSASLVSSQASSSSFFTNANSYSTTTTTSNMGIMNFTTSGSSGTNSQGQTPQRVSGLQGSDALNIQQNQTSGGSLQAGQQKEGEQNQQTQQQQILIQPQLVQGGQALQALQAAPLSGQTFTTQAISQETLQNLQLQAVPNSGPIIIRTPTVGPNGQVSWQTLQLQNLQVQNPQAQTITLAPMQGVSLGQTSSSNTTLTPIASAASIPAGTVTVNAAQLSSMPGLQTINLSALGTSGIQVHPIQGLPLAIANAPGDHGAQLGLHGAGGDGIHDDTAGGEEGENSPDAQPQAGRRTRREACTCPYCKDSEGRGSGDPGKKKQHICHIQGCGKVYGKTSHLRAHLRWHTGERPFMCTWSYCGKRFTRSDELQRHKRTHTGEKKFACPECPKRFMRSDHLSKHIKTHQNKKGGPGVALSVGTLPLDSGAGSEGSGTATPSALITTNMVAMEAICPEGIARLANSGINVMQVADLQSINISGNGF

Molecule: GGGGCGGGCCGGGGGCGGGG [VEGF G4 methylated]
- binding signal (fold signal vs unmethylated) (GST-SP1 [1]): 1.5
- Kd (GST-SP1 [2]; 5-methylcytosine at CpG (underlining lost in text; CpG C at 5, 10, 16)): 11 nM

Molecule: TCGGGTTGCGGGCGCAGGGCACGGGCG [HRAS1 G4 unmethylated]
- Kd (GST-SP1 [2]): 10 nM

Molecule: CGGGCGCGGGAGGAAGGGGGCGGGAGC [BCL-2 G4 methylated]
- Kd (GST-SP1 [2]; 5-methylcytosine at CpG (underlining lost in text; CpG C at 1, 5, 7, 21)): 28 nM

Molecule: GGGGCGGGCCGGGGGCGGGG [VEGF G4 unmethylated]
- Kd (GST-SP1 [2]): 14 nM

Molecule: CGGGGCGGGGCGGGGGCGGGGGCG [HRAS2 G4 methylated]
- Kd (GST-SP1 [2]; 5-methylcytosine at CpG (underlining lost in text; CpG C at 1, 6, 11, 17, 23)): 27 nM

Molecule: CGGGGCGGGGCGGGGGCGGGGGCG [HRAS2 G4 unmethylated]
- Kd (GST-SP1 [2]): 10 nM

Molecule: CGGGCGCGGGAGGAAGGGGGCGGGAGC [BCL-2 G4 unmethylated]
- Kd (GST-SP1 [2]): 12 nM

Molecule: GGCGAGGAGGGGCGTGGCCGGC [c-KIT G4 unmethylated]
- Kd (GST-SP1 [2]): 16 nM

Molecule: TCGGGTTGCGGGCGCAGGGCACGGGCG [HRAS1 G4 methylated]
- Kd (GST-SP1 [2]; 5-methylcytosine at CpG (underlining lost in text; CpG C at 2, 9, 13, 22, 26)): 36 nM

Molecule: GGCGAGGAGGGGCGTGGCCGGC [c-KIT G4 methylated]
- Kd (GST-SP1 [2]; 5-methylcytosine at CpG (underlining lost in text; CpG C at 3, 13, 19)): 11 nM

Molecule: GGGGCGGGCCGGGGGCGGGG (structured_DNA) [VEGF G4 unmethylated]
- Kd (VEGF165; G4, parallel in K+): 13 ± 0.43 nM

Molecule: GGGGCGGGCCGGGGGCGGGG (structured_DNA, 5-methylcytosine at CpG (underlining lost in text; CpG C at 5, 10, 16)) [VEGF G4 methylated]
- Kd (VEGF165; G4, altered topology): 25 ± 5.7 nM
